Data from the supplement of paper PMC10567573.

B1: ATL3 (parent)
chain: FSFRYQQELEEEIKELYENFCKHN

Variants of: B1
Assay: protein stability index of a GFP-peptide fusion (GPS, HEK-293T) (PSI 1-6); higher = more stable
Conditions: c terminus: a fixed tail appended
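Note: lentivirally expressed fusions sorted by FACS into six bins by GFP to DsRed ratio, PSI derived from sequencing read proportions per bin multiplied by bin number.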

Variant	protein stability index
FSFRYQQELEEERKELYENFCKHN [I13R]	2.53
FSFRYQQELEEESKELYENFCKHN [I13S]	2.17
FSFRYQQELEEETKELYENFCKHN [I13T]	2.91
FSFRYQQELEEEVKELYENFCKHN [I13V]	2.07
FSFRYQQELEEEWKELYENFCKHN [I13W]	2.66
FSFRYQQELEEEYKELYENFCKHN [I13Y]	2.83
FSFRYQQELEEEIAELYENFCKHN [K14A]	2.33
FSFRYQQELEEEICELYENFCKHN [K14C]	2.15
FSFRYQQELEEEIDELYENFCKHN [K14D]	2.81
FSFRYQQELEEEIEELYENFCKHN [K14E]	2.53
FSFRYQQELEEEIFELYENFCKHN [K14F]	1.87
FSFRYQQELEEEIGELYENFCKHN [K14G]	2.37
FSFRYQQELEEEIHELYENFCKHN [K14H]	2.28
FSFRYQQELEEEIIELYENFCKHN [K14I]	1.62
FSFRYQQELEEEILELYENFCKHN [K14L]	1.49
FSFRYQQELEEEIMELYENFCKHN [K14M]	1.53
FSFRYQQELEEEINELYENFCKHN [K14N]	2.31
FSFRYQQELEEEIPELYENFCKHN [K14P]	2.05
FSFRYQQELEEEIQELYENFCKHN [K14Q]	2.39
FSFRYQQELEEEIRELYENFCKHN [K14R]	2.72
FSFRYQQELEEEISELYENFCKHN [K14S]	1.66
FSFRYQQELEEEITELYENFCKHN [K14T]	2.29
FSFRYQQELEEEIVELYENFCKHN [K14V]	2.17
FSFRYQQELEEEIWELYENFCKHN [K14W]	2.73

Variant	protein stability index
FSFRYQQELEEEIYELYENFCKHN [K14Y]	1.62
FSFRYQQELEEEIKALYENFCKHN [E15A]	1.38
FSFRYQQELEEEIKCLYENFCKHN [E15C]	1.67
FSFRYQQELEEEIKDLYENFCKHN [E15D]	2.59
FSFRYQQELEEEIKFLYENFCKHN [E15F]	1.56
FSFRYQQELEEEIKGLYENFCKHN [E15G]	1.56
FSFRYQQELEEEIKHLYENFCKHN [E15H]	2.15
FSFRYQQELEEEIKILYENFCKHN [E15I]	1.71
FSFRYQQELEEEIKKLYENFCKHN [E15K]	2.96
FSFRYQQELEEEIKLLYENFCKHN [E15L]	1.96
FSFRYQQELEEEIKMLYENFCKHN [E15M]	1.39
FSFRYQQELEEEIKNLYENFCKHN [E15N]	1.75
FSFRYQQELEEEIKPLYENFCKHN [E15P]	1.59
FSFRYQQELEEEIKQLYENFCKHN [E15Q]	1.91
FSFRYQQELEEEIKRLYENFCKHN [E15R]	2.06
FSFRYQQELEEEIKSLYENFCKHN [E15S]	2.03
FSFRYQQELEEEIKTLYENFCKHN [E15T]	1.83
FSFRYQQELEEEIKVLYENFCKHN [E15V]	2.33
FSFRYQQELEEEIKWLYENFCKHN [E15W]	2.29
FSFRYQQELEEEIKYLYENFCKHN [E15Y]	1.8
FSFRYQQELEEEIKEAYENFCKHN [L16A]	2.56
FSFRYQQELEEEIKECYENFCKHN [L16C]	2.42
FSFRYQQELEEEIKEDYENFCKHN [L16D]	3.13
FSFRYQQELEEEIKEEYENFCKHN [L16E]	3.18

Variant	protein stability index
FSFRYQQELEEEIKEFYENFCKHN [L16F]	2.62
FSFRYQQELEEEIKEGYENFCKHN [L16G]	3.3
FSFRYQQELEEEIKEHYENFCKHN [L16H]	3.48
FSFRYQQELEEEIKEIYENFCKHN [L16I]	2.59
FSFRYQQELEEEIKEKYENFCKHN [L16K]	3.02
FSFRYQQELEEEIKEMYENFCKHN [L16M]	3.39
FSFRYQQELEEEIKENYENFCKHN [L16N]	2.86
FSFRYQQELEEEIKEPYENFCKHN [L16P]	3
FSFRYQQELEEEIKEQYENFCKHN [L16Q]	4.14
FSFRYQQELEEEIKERYENFCKHN [L16R]	2.71
FSFRYQQELEEEIKESYENFCKHN [L16S]	2.79
FSFRYQQELEEEIKETYENFCKHN [L16T]	2.5
FSFRYQQELEEEIKEVYENFCKHN [L16V]	2.28
FSFRYQQELEEEIKEWYENFCKHN [L16W]	2.03
FSFRYQQELEEEIKEYYENFCKHN [L16Y]	2.13
FSFRYQQELEEEIKELAENFCKHN [Y17A]	3.16
FSFRYQQELEEEIKELCENFCKHN [Y17C]	3.09
FSFRYQQELEEEIKELDENFCKHN [Y17D]	2.92
FSFRYQQELEEEIKELEENFCKHN [Y17E]	3.97
FSFRYQQELEEEIKELFENFCKHN [Y17F]	2.16
FSFRYQQELEEEIKELGENFCKHN [Y17G]	4.22
FSFRYQQELEEEIKELHENFCKHN [Y17H]	3.05
FSFRYQQELEEEIKELIENFCKHN [Y17I]	2.92
FSFRYQQELEEEIKELKENFCKHN [Y17K]	2.89

Variant	protein stability index
FSFRYQQELEEEIKELLENFCKHN [Y17L]	2.36
FSFRYQQELEEEIKELMENFCKHN [Y17M]	2.68
FSFRYQQELEEEIKELNENFCKHN [Y17N]	3.09
FSFRYQQELEEEIKELPENFCKHN [Y17P]	4.27
FSFRYQQELEEEIKELQENFCKHN [Y17Q]	4.02
FSFRYQQELEEEIKELRENFCKHN [Y17R]	2.73
FSFRYQQELEEEIKELSENFCKHN [Y17S]	3.49
FSFRYQQELEEEIKELTENFCKHN [Y17T]	3.76
FSFRYQQELEEEIKELVENFCKHN [Y17V]	3.33
FSFRYQQELEEEIKELWENFCKHN [Y17W]	2.48
FSFRYQQELEEEIKELYANFCKHN [E18A]	2.19
FSFRYQQELEEEIKELYCNFCKHN [E18C]	1.57
FSFRYQQELEEEIKELYDNFCKHN [E18D]	2.6
FSFRYQQELEEEIKELYFNFCKHN [E18F]	1.21
FSFRYQQELEEEIKELYHNFCKHN [E18H]	1.89
FSFRYQQELEEEIKELYINFCKHN [E18I]	2.28
FSFRYQQELEEEIKELYKNFCKHN [E18K]	1.72
FSFRYQQELEEEIKELYLNFCKHN [E18L]	1.55
FSFRYQQELEEEIKELYMNFCKHN [E18M]	2.27
FSFRYQQELEEEIKELYNNFCKHN [E18N]	2.15
FSFRYQQELEEEIKELYPNFCKHN [E18P]	1.77
FSFRYQQELEEEIKELYQNFCKHN [E18Q]	1.8
